Measured values: the Human Domainome abundance scans (Beltran et al. 2025)
± gives the uncertainty stated by the source.

B1: Zinc finger MYM-type protein 3, residues 589 to 668; numbered along this chain, Q14202 (parent)
chain: LSCHYCHSLFSGKPEVLDWQDQVFQFCCRDCCEDFKRLRGVVSQCEHCRQEKLLHEKLRFSGVEKSFCSEGCVLLYKQDF

Variants of: B1
Assay: abundance fitness (aPCA) (normalised: wild type 0, dead -1); higher = more abundant; growth selection in yeast, the domain comes from the species named
Details: Homo sapiens

Variant	abundance fitness
LSCHYCHSLFSGKPEVLDWQDQVFQFCCRDCCEDFKRLRGVVSQCEHPRQEKLLHEKLRFSGVEKSFCSEGCVLLYKQDF [C48P]	0.207 ± 0.23
LSCHYCHSLFSGKPEVLDWQDQVFQFCCRDCCEDFKRLRGVVSQCEHVRQEKLLHEKLRFSGVEKSFCSEGCVLLYKQDF [C48V]	-0.741 ± 0.18
LSCHYCHSLFSGKPEVLDWQDQVFQFCCRDCCEDFKRLRGVVSQCEHTRQEKLLHEKLRFSGVEKSFCSEGCVLLYKQDF [C48T]	-1.05 ± 0.46
LSCHYCHSLFSGKPEVLDWQDQVFQFCCRDCCEDFKRLRGVVSQCEHKRQEKLLHEKLRFSGVEKSFCSEGCVLLYKQDF [C48K]	0.19 ± 0.34
LSCHYCHSLFSGKPEVLDWQDQVFQFCCRDCCEDFKRLRGVVSQCEHWRQEKLLHEKLRFSGVEKSFCSEGCVLLYKQDF [C48W]	-0.329 ± 0.16
LSCHYCHSLFSGKPEVLDWQDQVFQFCCRDCCEDFKRLRGVVSQCEHARQEKLLHEKLRFSGVEKSFCSEGCVLLYKQDF [C48A]	-0.845 ± 0.16
LSCHYCHSLFSGKPEVLDWQDQVFQFCCRDCCEDFKRLRGVVSQCEHLRQEKLLHEKLRFSGVEKSFCSEGCVLLYKQDF [C48L]	-0.578 ± 0.23
LSCHYCHSLFSGKPEVLDWQDQVFQFCCRDCCEDFKRLRGVVSQCEHERQEKLLHEKLRFSGVEKSFCSEGCVLLYKQDF [C48E]	-1.04 ± 0.31
LSCHYCHSLFSGKPEVLDWQDQVFQFCCRDCCEDFKRLRGVVSQCEHSRQEKLLHEKLRFSGVEKSFCSEGCVLLYKQDF [C48S]	-0.561 ± 0.43
LSCHYCHSLFSGKPEVLDWQDQVFQFCCRDCCEDFKRLRGVVSQCEHRRQEKLLHEKLRFSGVEKSFCSEGCVLLYKQDF [C48R]	-0.553 ± 0.12
LSCHYCHSLFSGKPEVLDWQDQVFQFCCRDCCEDFKRLRGVVSQCEHCRQEKALHEKLRFSGVEKSFCSEGCVLLYKQDF [L53A]	-0.313 ± 0.14
LSCHYCHSLFSGKPEVLDWQDQVFQFCCRDCCEDFKRLRGVVSQCEHCRQESLLHEKLRFSGVEKSFCSEGCVLLYKQDF [K52S]	-0.371 ± 0.16
LSCHYCHSLFSGKPEVLDWQDQVFQFCCRDCCEDFKRLRGVVSQCEHCRQERLLHEKLRFSGVEKSFCSEGCVLLYKQDF [K52R]	-0.315 ± 0.1
LSCHYCHSLFSGKPEVLDWQDQVFQFCCRDCCEDFKRLRGVVSQCEHCRQEVLLHEKLRFSGVEKSFCSEGCVLLYKQDF [K52V]	-0.478 ± 0.22
LSCHYCHSLFSGKPEVLDWQDQVFQFCCRDCCEDFKRLRGVVSQCEHCRQEMLLHEKLRFSGVEKSFCSEGCVLLYKQDF [K52M]	-0.118 ± 0.28
LSCHYCHSLFSGKPEVLDWQDQVFQFCCRDCCEDFKRLRGVVSQCEHCRQEALLHEKLRFSGVEKSFCSEGCVLLYKQDF [K52A]	-0.244 ± 0.14
LSCHYCHSLFSGKPEVLDWQDQVFQFCCRDCCEDFKRLRGVVSQCEHCRQECLLHEKLRFSGVEKSFCSEGCVLLYKQDF [K52C]	0.546 ± 0.21
LSCHYCHSLFSGKPEVLDWQDQVFQFCCRDCCEDFKRLRGVVSQCEHCRQEWLLHEKLRFSGVEKSFCSEGCVLLYKQDF [K52W]	-0.699 ± 0.18
LSCHYCHSLFSGKPEVLDWQDQVFQFCCRDCCEDFKRLRGVVSQCEHCRQEPLLHEKLRFSGVEKSFCSEGCVLLYKQDF [K52P]	-0.998 ± 0.35
LSCHYCHSLFSGKPEVLDWQDQVFQFCCRDCCEDFKRLRGVVSQCEHCRQEGLLHEKLRFSGVEKSFCSEGCVLLYKQDF [K52G]	-0.07 ± 0.078
LSCHYCHSLFSGKPEVLDWQDQVFQFCCRDCCEDFKRLRGVVSQCEHCRQEELLHEKLRFSGVEKSFCSEGCVLLYKQDF [K52E]	-0.785 ± 0.23
LSCHYCHSLFSGKPEVLDWQDQVFQFCCRDCCEDFKRLRGVVSQCEHCSQEKLLHEKLRFSGVEKSFCSEGCVLLYKQDF [R49S]	0.283 ± 0.14
LSCHYCHSLFSGKPEVLDWQDQVFQFCCRDCCEDFKRLRGVVSQCEHCYQEKLLHEKLRFSGVEKSFCSEGCVLLYKQDF [R49Y]	-0.618 ± 0.39

Variant	abundance fitness
LSCHYCHSLFSGKPEVLDWQDQVFQFCCRDCCEDFKRLRGVVSQCEHCKQEKLLHEKLRFSGVEKSFCSEGCVLLYKQDF [R49K]	-0.084 ± 0.19
LSCHYCHSLFSGKPEVLDWQDQVFQFCCRDCCEDFKRLRGVVSQCEHCEQEKLLHEKLRFSGVEKSFCSEGCVLLYKQDF [R49E]	-0.361 ± 0.18
LSCHYCHSLFSGKPEVLDWQDQVFQFCCRDCCEDFKRLRGVVSQCEHCDQEKLLHEKLRFSGVEKSFCSEGCVLLYKQDF [R49D]	-0.485 ± 0.46
LSCHYCHSLFSGKPEVLDWQDQVFQFCCRDCCEDFKRLRGVVSQCEHCFQEKLLHEKLRFSGVEKSFCSEGCVLLYKQDF [R49F]	-0.38 ± 0.2
LSCHYCHSLFSGKPEVLDWQDQVFQFCCRDCCEDFKRLRGVVSQCEHCLQEKLLHEKLRFSGVEKSFCSEGCVLLYKQDF [R49L]	-0.131 ± 0.11
LSCHYCHSLFSGKPEVLDWQDQVFQFCCRDCCEDFKRLRGVVSQCEHCVQEKLLHEKLRFSGVEKSFCSEGCVLLYKQDF [R49V]	-0.785 ± 0.19
LSCHYCHSLFSGKPEVLDWQDQVFQFCCRDCCEDFKRLRGVVSQCEHCWQEKLLHEKLRFSGVEKSFCSEGCVLLYKQDF [R49W]	-0.327 ± 0.27
LSCHYCHSLFSGKPEVLDWQDQVFQFCCRDCCEDFKRLRGVVSQCEHCMQEKLLHEKLRFSGVEKSFCSEGCVLLYKQDF [R49M]	-0.482 ± 0.5
LSCHYCHSLFSGKPEVLDWQDQVFQFCCRDCCEDFKRLRGVVSQCEHCAQEKLLHEKLRFSGVEKSFCSEGCVLLYKQDF [R49A]	-0.507 ± 0.2
LSCHYCHSLFSGKPEVLDWQDQVFQFCCRDCCEDFKRLRGVVSQCEHCTQEKLLHEKLRFSGVEKSFCSEGCVLLYKQDF [R49T]	-0.352 ± 0.14
LSCHYCHSLFSGKPEVLDWQDQVFQFCCRDCCEDFKRLRGVVSQCESCRQEKLLHEKLRFSGVEKSFCSEGCVLLYKQDF [H47S]	-0.098 ± 0.14
LSCHYCHSLFSGKPEVLDWQDQVFQFCCRDCCEDFKRLRGVVSQCEKCRQEKLLHEKLRFSGVEKSFCSEGCVLLYKQDF [H47K]	0.075 ± 0.29
LSCHYCHSLFSGKPEVLDWQDQVFQFCCRDCCEDFKRLRGVVSQCEMCRQEKLLHEKLRFSGVEKSFCSEGCVLLYKQDF [H47M]	-0.061 ± 0.2
LSCHYCHSLFSGKPEVLDWQDQVFQFCCRDCCEDFKRLRGVVSQCEECRQEKLLHEKLRFSGVEKSFCSEGCVLLYKQDF [H47E]	-0.406 ± 0.16
LSCHYCHSLFSGKPEVLDWQDQVFQFCCRDCCEDFKRLRGVVSQCEPCRQEKLLHEKLRFSGVEKSFCSEGCVLLYKQDF [H47P]	-0.742 ± 0.42
LSCHYCHSLFSGKPEVLDWQDQVFQFCCRDCCEDFKRLRGVVSQCEQCRQEKLLHEKLRFSGVEKSFCSEGCVLLYKQDF [H47Q]	0.151 ± 0.15
LSCHYCHSLFSGKPEVLDWQDQVFQFCCRDCCEDFKRLRGVVSQCERCRQEKLLHEKLRFSGVEKSFCSEGCVLLYKQDF [H47R]	-0.098 ± 0.089
LSCHYCHSLFSGKPEVLDWQDQVFQFCCRDCCEDFKRLRGVVSQCELCRQEKLLHEKLRFSGVEKSFCSEGCVLLYKQDF [H47L]	-0.388 ± 0.14
LSCHYCHSLFSGKPEVLDWQDQVFQFCCRDCCEDFKRLRGVVSQCEVCRQEKLLHEKLRFSGVEKSFCSEGCVLLYKQDF [H47V]	0.075 ± 0.2
LSCHYCHSLFSGKPEVLDWQDQVFQFCCRDCCEDFKRLRGVVSQCEWCRQEKLLHEKLRFSGVEKSFCSEGCVLLYKQDF [H47W]	0.246 ± 0.13
LSCHYCHSLFSGKPEVLDWQDQVFQFCCRDCCEDFKRLRGVVSQCEHCRQLKLLHEKLRFSGVEKSFCSEGCVLLYKQDF [E51L]	-0.119 ± 0.12
LSCHYCHSLFSGKPEVLDWQDQVFQFCCRDCCEDFKRLRGVVSQCEHCRQTKLLHEKLRFSGVEKSFCSEGCVLLYKQDF [E51T]	-0.096 ± 0.18
LSCHYCHSLFSGKPEVLDWQDQVFQFCCRDCCEDFKRLRGVVSQCEHCRQAKLLHEKLRFSGVEKSFCSEGCVLLYKQDF [E51A]	-0.394 ± 0.16

Variant	abundance fitness
LSCHYCHSLFSGKPEVLDWQDQVFQFCCRDCCEDFKRLRGVVSQCEHCRQRKLLHEKLRFSGVEKSFCSEGCVLLYKQDF [E51R]	-0.198 ± 0.084
LSCHYCHSLFSGKPEVLDWQDQVFQFCCRDCCEDFKRLRGVVSQCEHCRQWKLLHEKLRFSGVEKSFCSEGCVLLYKQDF [E51W]	0.537 ± 0.098
LSCHYCHSLFSGKPEVLDWQDQVFQFCCRDCCEDFKRLRGVVSQCEHCRQGKLLHEKLRFSGVEKSFCSEGCVLLYKQDF [E51G]	-0.393 ± 0.12
LSCHYCHSLFSGKPEVLDWQDQVFQFCCRDCCEDFKRLRGVVSQCEHCRQIKLLHEKLRFSGVEKSFCSEGCVLLYKQDF [E51I]	-0.546 ± 0.32
LSCHYCHSLFSGKPEVLDWQDQVFQFCCRDCCEDFKRLRGVVSQCEHCRQHKLLHEKLRFSGVEKSFCSEGCVLLYKQDF [E51H]	0.675 ± 0.42
LSCHYCHSLFSGKPEVLDWQDQVFQFCCRDCCEDFKRLRGVVSQCEHCRQCKLLHEKLRFSGVEKSFCSEGCVLLYKQDF [E51C]	0.227 ± 0.23
LSCHYCHSLFSGKPEVLDWQDQVFQFCCRDCCEDFKRLRGVVSQCEHCRQPKLLHEKLRFSGVEKSFCSEGCVLLYKQDF [E51P]	0.127 ± 0.16
LSCHYCHSLFSGKPEVLDWQDQVFQFCCRDCCEDFKRLRGVVSQCEHCRQDKLLHEKLRFSGVEKSFCSEGCVLLYKQDF [E51D]	0.187 ± 0.35
LSCHYCHSLFSGKPEVLDWQDQVFQFCCRDCCEDFKRLRGVVSQCEHCRQVKLLHEKLRFSGVEKSFCSEGCVLLYKQDF [E51V]	-0.143 ± 0.12
LSCHYCHSLFSGKPEVLDWQDQVFQFCCRDCCEDFKRLRGVVSQCEHCRQQKLLHEKLRFSGVEKSFCSEGCVLLYKQDF [E51Q]	0.003 ± 0.41
LSCHYCHSLFSGKPEVLDWQDQVFQFCCRDCCEDFKRLRGVVSQCEHCRLEKLLHEKLRFSGVEKSFCSEGCVLLYKQDF [Q50L]	-0.542 ± 0.16
LSCHYCHSLFSGKPEVLDWQDQVFQFCCRDCCEDFKRLRGVVSQCEHCRGEKLLHEKLRFSGVEKSFCSEGCVLLYKQDF [Q50G]	-0.436 ± 0.094
LSCHYCHSLFSGKPEVLDWQDQVFQFCCRDCCEDFKRLRGVVSQCEHCRCEKLLHEKLRFSGVEKSFCSEGCVLLYKQDF [Q50C]	-0.013 ± 0.24
LSCHYCHSLFSGKPEVLDWQDQVFQFCCRDCCEDFKRLRGVVSQCEHCRWEKLLHEKLRFSGVEKSFCSEGCVLLYKQDF [Q50W]	-0.582 ± 0.19
LSCHYCHSLFSGKPEVLDWQDQVFQFCCRDCCEDFKRLRGVVSQCEHCRPEKLLHEKLRFSGVEKSFCSEGCVLLYKQDF [Q50P]	-0.48 ± 0.24
LSCHYCHSLFSGKPEVLDWQDQVFQFCCRDCCEDFKRLRGVVSQCEHCRSEKLLHEKLRFSGVEKSFCSEGCVLLYKQDF [Q50S]	-0.356 ± 0.24
LSCHYCHSLFSGKPEVLDWQDQVFQFCCRDCCEDFKRLRGVVSQCEHCRTEKLLHEKLRFSGVEKSFCSEGCVLLYKQDF [Q50T]	-0.293 ± 0.3
LSCHYCHSLFSGKPEVLDWQDQVFQFCCRDCCEDFKRLRGVVSQCEHCREEKLLHEKLRFSGVEKSFCSEGCVLLYKQDF [Q50E]	-0.242 ± 0.11
LSCHYCHSLFSGKPEVLDWQDQVFQFCCRDCCEDFKRLRGVVSQCEHCRAEKLLHEKLRFSGVEKSFCSEGCVLLYKQDF [Q50A]	-0.641 ± 0.18
LSCHYCHSLFSGKPEVLDWQDQVFQFCCRDCCEDFKRLRGVVSQCEHCRYEKLLHEKLRFSGVEKSFCSEGCVLLYKQDF [Q50Y]	-0.312 ± 0.21
LSCHYCHSLFSGKPEVLDWQDQVFQFCCRDCCEDFKRLRGVVSQCEHCRMEKLLHEKLRFSGVEKSFCSEGCVLLYKQDF [Q50M]	0.172 ± 0.5
LSCHYCHSLFSGKPEVLDWQDQVFQFCCRDCCEDFKRLRGVVSQCEHCRREKLLHEKLRFSGVEKSFCSEGCVLLYKQDF [Q50R]	0.01 ± 0.11
LSCHYCHSLFSGKPEVLDWQDQVFQFCCRDCCEDFKRLRGVVSQCEHCRKEKLLHEKLRFSGVEKSFCSEGCVLLYKQDF [Q50K]	-0.071 ± 0.21
